According to the supplement of paper PMC10065799, “High-throughput profiling of sequence recognition by tyrosine kinases and SH2 domains using bacterial peptide display” (eLife, 2023):

Tests used:
[1] = tested on: AncSZ; assay: phosphorylation enrichment, bacterial display (enrichment ratio); higher = better substrate or ligand; peptides without Tyr show the background
[2] = molecular target: EPHB1 (UniProt P54762); assay: as above
[3] = molecular target: EPHB2 (UniProt P29323); assay: as above
EPHB2, sequence (P29323 whole entry, looked up): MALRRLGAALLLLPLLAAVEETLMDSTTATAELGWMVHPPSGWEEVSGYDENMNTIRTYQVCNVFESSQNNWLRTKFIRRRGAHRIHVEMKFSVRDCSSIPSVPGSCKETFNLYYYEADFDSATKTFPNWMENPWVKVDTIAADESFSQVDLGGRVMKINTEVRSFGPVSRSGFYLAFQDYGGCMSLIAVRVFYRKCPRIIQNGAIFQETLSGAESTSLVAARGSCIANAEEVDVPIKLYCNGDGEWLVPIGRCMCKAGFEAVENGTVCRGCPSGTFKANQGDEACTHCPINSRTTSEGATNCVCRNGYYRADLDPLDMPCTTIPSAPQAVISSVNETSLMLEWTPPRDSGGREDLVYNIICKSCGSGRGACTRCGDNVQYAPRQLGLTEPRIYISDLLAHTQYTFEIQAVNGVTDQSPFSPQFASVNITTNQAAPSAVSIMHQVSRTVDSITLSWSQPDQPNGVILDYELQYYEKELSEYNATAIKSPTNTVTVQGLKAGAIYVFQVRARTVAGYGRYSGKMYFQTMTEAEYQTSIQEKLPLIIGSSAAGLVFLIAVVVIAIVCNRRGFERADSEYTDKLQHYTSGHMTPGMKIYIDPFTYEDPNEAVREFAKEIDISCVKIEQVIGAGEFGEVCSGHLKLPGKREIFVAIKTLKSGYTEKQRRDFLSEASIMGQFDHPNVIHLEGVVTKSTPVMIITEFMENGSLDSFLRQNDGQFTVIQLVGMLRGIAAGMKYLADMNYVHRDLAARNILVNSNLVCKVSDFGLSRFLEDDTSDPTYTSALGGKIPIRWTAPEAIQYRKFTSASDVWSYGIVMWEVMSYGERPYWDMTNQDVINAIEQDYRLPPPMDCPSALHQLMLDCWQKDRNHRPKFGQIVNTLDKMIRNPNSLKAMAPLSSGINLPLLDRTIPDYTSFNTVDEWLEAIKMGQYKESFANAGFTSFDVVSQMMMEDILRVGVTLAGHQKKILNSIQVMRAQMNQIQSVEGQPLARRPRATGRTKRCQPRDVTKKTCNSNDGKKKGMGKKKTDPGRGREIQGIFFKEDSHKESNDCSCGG

[4] = molecular target: FGFR1 (UniProt P11362); assay: as above
[5] = molecular target: FGFR3 (UniProt P22607); assay: as above
FGFR3, sequence (P22607 whole entry, looked up): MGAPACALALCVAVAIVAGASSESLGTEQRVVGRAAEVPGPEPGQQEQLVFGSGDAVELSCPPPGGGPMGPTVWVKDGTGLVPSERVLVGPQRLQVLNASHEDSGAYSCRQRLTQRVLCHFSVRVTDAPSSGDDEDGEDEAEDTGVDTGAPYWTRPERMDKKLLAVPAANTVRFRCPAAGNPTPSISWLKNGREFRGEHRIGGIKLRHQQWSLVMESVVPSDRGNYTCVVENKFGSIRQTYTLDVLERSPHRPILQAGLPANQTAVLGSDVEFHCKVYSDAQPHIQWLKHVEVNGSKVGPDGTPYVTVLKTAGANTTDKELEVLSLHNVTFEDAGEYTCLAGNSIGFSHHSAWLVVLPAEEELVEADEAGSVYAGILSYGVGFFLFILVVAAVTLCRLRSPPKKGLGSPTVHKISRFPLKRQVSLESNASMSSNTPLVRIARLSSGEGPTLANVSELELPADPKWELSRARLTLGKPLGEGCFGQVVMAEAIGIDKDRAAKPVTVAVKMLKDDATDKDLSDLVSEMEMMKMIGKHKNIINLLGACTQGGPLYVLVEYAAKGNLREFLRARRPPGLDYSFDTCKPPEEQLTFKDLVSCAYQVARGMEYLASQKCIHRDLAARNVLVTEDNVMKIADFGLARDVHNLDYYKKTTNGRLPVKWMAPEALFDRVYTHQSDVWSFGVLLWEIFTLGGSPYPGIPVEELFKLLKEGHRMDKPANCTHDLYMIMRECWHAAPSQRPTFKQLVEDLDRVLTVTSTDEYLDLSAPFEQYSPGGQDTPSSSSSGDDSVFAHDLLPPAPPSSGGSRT

[6] = tested on: Fer (mouse); assay: as above
[7] = molecular target: Fes (UniProt P07332); assay: as above
Fes, sequence (P07332 whole entry, looked up): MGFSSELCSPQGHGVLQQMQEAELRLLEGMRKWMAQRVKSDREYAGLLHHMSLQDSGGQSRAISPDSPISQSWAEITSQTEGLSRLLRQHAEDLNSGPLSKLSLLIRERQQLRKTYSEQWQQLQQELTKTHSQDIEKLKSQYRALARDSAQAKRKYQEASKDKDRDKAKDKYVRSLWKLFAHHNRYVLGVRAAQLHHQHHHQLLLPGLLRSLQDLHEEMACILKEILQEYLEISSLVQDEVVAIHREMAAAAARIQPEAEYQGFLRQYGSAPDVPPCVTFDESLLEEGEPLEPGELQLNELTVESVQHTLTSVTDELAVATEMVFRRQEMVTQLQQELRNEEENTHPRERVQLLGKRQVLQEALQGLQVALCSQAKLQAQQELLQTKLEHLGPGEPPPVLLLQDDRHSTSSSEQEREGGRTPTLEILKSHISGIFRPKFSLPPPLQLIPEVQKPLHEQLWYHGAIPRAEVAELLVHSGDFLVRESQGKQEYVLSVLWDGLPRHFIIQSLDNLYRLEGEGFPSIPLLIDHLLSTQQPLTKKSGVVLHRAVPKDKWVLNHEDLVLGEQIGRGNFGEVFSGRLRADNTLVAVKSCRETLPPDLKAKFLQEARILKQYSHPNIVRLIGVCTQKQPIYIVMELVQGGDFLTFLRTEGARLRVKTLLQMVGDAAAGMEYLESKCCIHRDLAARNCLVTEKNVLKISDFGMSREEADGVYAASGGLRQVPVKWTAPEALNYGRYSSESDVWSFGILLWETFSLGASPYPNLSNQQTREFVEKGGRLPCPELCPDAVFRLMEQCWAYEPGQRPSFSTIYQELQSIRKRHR

[8] = molecular target: Fyn (UniProt P06241); assay: as above
Fyn, sequence (P06241 whole entry, looked up): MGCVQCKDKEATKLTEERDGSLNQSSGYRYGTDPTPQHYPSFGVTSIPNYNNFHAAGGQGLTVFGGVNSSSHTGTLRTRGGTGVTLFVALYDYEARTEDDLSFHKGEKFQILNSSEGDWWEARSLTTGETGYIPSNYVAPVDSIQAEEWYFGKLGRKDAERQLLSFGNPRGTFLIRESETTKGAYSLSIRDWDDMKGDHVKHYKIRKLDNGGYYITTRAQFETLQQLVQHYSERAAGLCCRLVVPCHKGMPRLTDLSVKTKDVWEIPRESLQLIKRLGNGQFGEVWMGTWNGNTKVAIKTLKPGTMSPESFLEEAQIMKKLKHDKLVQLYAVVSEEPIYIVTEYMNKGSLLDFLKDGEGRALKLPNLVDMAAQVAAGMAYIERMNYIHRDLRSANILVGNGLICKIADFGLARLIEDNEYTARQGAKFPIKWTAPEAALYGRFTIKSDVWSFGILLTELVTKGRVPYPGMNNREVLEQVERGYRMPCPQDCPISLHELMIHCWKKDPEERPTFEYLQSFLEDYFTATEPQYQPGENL

[9] = molecular target: Hck (UniProt P08631); assay: as above
Hck, sequence (P08631 whole entry, looked up): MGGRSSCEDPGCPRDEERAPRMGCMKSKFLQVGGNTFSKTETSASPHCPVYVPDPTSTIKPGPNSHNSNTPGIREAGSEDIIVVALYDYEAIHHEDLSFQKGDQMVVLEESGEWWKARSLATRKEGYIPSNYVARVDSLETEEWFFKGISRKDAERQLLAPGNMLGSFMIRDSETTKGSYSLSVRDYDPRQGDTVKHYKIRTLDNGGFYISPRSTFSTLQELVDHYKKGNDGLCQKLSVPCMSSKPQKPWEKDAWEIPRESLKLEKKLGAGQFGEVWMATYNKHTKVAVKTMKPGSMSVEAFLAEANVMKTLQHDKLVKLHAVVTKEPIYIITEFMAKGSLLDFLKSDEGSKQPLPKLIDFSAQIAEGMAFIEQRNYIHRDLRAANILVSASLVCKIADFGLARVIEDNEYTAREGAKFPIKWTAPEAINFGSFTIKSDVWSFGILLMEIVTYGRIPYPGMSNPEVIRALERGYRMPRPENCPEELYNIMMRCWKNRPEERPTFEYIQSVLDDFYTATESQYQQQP

[10] = molecular target: Jak2 (UniProt O60674); assay: as above
[11] = molecular target: MERTK (UniProt Q12866); assay: as above
[12] = tested on: c-Abl (mouse); assay: as above
[13] = tested on: c-Src; assay: as above
[14] = molecular target: Grb2 SH2 (UniProt P62993); assay: SH2 binding enrichment of the phosphorylated peptide, bacterial display (enrichment ratio); higher = better substrate or ligand; peptides without Tyr show the background
Grb2 SH2, sequence (P62993 whole entry, looked up): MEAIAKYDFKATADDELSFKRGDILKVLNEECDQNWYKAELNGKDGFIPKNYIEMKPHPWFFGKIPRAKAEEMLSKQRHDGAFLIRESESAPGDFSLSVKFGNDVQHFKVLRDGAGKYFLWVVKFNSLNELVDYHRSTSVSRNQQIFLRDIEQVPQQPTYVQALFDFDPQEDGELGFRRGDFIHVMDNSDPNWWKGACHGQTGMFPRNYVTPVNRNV

[15] = molecular target: SHP2-C SH2; assay: as above
[16] = molecular target: c-Src SH2; assay: as above
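Throughout, for SH2 binding enrichment of the phosphorylated peptide, bacterial display: peptide library displayed on the E. coli surface as eCPX fusions, selected cells deep-sequenced, score is each peptide's frequency after selection divided by its frequency in the input.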
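Throughout, for phosphorylation enrichment, bacterial display: 11-residue human phosphosite peptides and single-mutation variants displayed on the E. coli surface, counted by deep sequencing, each peptide's frequency after selection divided by its frequency in the unselected input library; frequency after pTyr selection over input frequency; kinase dosed for 20-30% of maximal phosphorylation in three min.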

EPHB1, sequence (P54762 whole entry, looked up): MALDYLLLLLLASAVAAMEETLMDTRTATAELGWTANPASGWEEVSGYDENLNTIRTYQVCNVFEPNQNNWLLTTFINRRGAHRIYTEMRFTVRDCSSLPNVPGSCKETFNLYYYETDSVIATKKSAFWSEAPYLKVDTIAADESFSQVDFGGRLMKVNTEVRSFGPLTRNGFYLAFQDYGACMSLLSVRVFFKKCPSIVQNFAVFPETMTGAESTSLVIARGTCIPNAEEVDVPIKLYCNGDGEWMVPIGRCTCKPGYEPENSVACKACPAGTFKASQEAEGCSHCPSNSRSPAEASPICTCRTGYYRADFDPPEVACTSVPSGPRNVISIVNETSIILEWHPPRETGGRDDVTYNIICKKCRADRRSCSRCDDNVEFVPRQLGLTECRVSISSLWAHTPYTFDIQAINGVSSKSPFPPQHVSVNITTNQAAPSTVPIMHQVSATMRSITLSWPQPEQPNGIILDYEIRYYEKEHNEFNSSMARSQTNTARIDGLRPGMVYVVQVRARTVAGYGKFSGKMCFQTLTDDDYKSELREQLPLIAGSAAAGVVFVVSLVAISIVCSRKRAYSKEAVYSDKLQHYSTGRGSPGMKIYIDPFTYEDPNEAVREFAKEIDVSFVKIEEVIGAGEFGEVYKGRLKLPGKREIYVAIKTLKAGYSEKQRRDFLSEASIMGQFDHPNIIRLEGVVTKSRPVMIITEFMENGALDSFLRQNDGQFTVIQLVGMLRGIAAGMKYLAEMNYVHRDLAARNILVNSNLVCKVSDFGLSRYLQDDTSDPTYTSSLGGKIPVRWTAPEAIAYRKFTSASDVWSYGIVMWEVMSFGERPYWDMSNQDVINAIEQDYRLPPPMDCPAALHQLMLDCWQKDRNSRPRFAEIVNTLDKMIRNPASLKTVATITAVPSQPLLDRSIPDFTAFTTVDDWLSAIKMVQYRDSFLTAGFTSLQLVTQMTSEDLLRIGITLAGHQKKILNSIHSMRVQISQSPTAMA

Sequence	phosphorylation enrichment [1]	phosphorylation enrichment [2]	phosphorylation enrichment [3]	phosphorylation enrichment [4]	phosphorylation enrichment [5]	phosphorylation enrichment [6]	phosphorylation enrichment [7]	phosphorylation enrichment [8]	phosphorylation enrichment [9]	phosphorylation enrichment [10]	phosphorylation enrichment [11]	phosphorylation enrichment [12]	phosphorylation enrichment [13]	SH2 binding enrichment [14]	SH2 binding enrichment [15]	SH2 binding enrichment [16]
GTYVIYVRFGG [FLNB_Y1687]	1.22	0.604	0.696	0.511	0.736	0.516	1.32	0.62	0.597	1.04	0.498	0.868	0.752	1.1	0.782	0.533
NEKNIYGVPLM [BMPR2_Y247_R248G]	0.616	0.431	1.7	0.511	0.624	3.26	0.717	4.93	6.04	0.627	2.83	19.6	3.45	0.808	0.785	0.478
HKANEYFPVVL [ADAMTS18_Y764_YF]	0.872	0.951	1.5	8.42	4.38	0.736	0.896	0.807	0.533	1.83	0.528	0.628	0.556	0.963	0.53	0.462
VECHLYFTQPK [AKR1D1_Y199_P198L]	1.42	0.717	0.663	0.493	0.946	0.645	1.33	0.588	0.631	1.58	0.556	1.02	0.91	0.801	0.867	0.374
TRDVNYGWIIH [MT-CYB_Y75_R80H]	1.06	0.938	1.14	0.703	0.736	4.76	1.11	0.508	0.523	1.15	1.98	0.908	0.524	0.99	1.23	0.522
EQQDMYRLKVL [ABCC6_Y372_N370D]	0.774	0.354	0.482	0.451	0.581	0.473	0.773	0.387	0.427	0.638	0.376	0.453	0.415	0.852	0.63	0.58
HFGCVYLGTLL [MET_Y1093_H1094L]	2.29	1.02	1.1	0.925	1.67	0.923	2.24	0.897	1.01	2.07	0.597	1.39	4.61	0.692	0.553	0.483
VHVEVYDPPSP	1.65	0.749	0.572	0.672	0.826	0.758	1.3	0.794	0.833	1.27	0.775	0.949	0.719	0.736	0.548	0.708
SVTCKYSPALN [TP53_Y126_T125K]	0.638	0.431	0.457	0.429	0.515	0.392	0.795	0.344	0.431	0.629	0.386	0.458	0.454	0.752	0.654	0.363
LQRCKNSHMEP [TEX45_Y434_Y434N]	0.599	0.939	0.848	0.958	0.729	0.782	0.865	0.956	0.741	0.9	0.809	0.641	0.747	1.15	0.942	0.691
DRVALYVAREG [AACS_Y117_I118V]	0.8	0.621	0.763	0.503	0.705	0.498	1.01	0.467	0.68	0.823	0.291	0.589	0.367	0.825	0.644	0.425
SVMAEYGLYRA [VSX2_Y219_G223R]	0.951	0.701	1.28	0.537	0.578	0.512	0.862	7.16	6.46	0.569	0.552	0.945	6.41	0.734	0.702	0.447
RLIEGYTGPFK [ZNF862_Y181]	1.59	1.07	0.927	1.13	1.29	1.21	1.75	1.1	1.3	1.79	1.23	1.12	1.29	0.808	0.862	0.472
ITRDIYETDYY [INSR_Y1185_M1180I]	2.67	1.45	1.55	2.03	1.95	0.72	1.47	1.58	1.19	1.09	0.828	0.722	2.76	0.854	0.695	1.1
DLREKYMDCGG [HAP1_Y440]	0.919	0.716	0.625	0.507	0.726	0.586	1.1	0.499	0.55	0.913	0.442	0.738	0.389	0.938	0.596	0.668
DYCDLYGGEKF [PTPN11_Y66_Y63C]	1.72	2.93	2.14	3.45	2.56	0.967	1.05	1.39	2.31	0.914	0.477	0.747	2.39	0.839	0.525	0.724
KMLEKYKEQLN [TLK2_Y259_R262Q]	0.721	0.585	0.598	0.604	0.56	0.539	0.864	0.503	0.53	0.507	0.393	0.51	0.336	1.01	0.619	0.426

Sequence	phosphorylation enrichment [1]	phosphorylation enrichment [2]	phosphorylation enrichment [3]	phosphorylation enrichment [4]	phosphorylation enrichment [5]	phosphorylation enrichment [6]	phosphorylation enrichment [7]	phosphorylation enrichment [8]	phosphorylation enrichment [9]	phosphorylation enrichment [10]	phosphorylation enrichment [11]	phosphorylation enrichment [12]	phosphorylation enrichment [13]	SH2 binding enrichment [14]	SH2 binding enrichment [15]	SH2 binding enrichment [16]
SSQVLYKLEQS [THADA_Y701]	0.628	0.476	0.592	0.434	0.507	0.431	0.726	0.48	0.487	0.731	0.442	0.496	0.706	0.893	0.678	0.527
GGEEFYVHYVG [KAT8_Y90_R86G]	1.32	0.627	0.532	0.681	0.849	0.532	1.21	0.547	0.488	1.22	0.455	0.741	0.565	0.931	1.89	0.495
EYITRYIASLK [PSMA7_Y110]	0.708	0.498	0.416	0.456	0.415	0.414	0.717	0.416	0.51	0.526	0.499	0.569	0.477	1.05	1.46	0.57
EQMASYSGHSV [ITGA2B_Y319_F320S]	0.496	0.298	0.363	0.384	0.406	0.734	0.543	0.449	0.488	0.736	0.337	0.493	0.37	0.821	0.615	0.515
RAWPPYTVAAD [ANKZF1_Y572_R569W]	0.884	0.678	0.517	0.573	0.589	0.631	1.11	0.571	0.597	0.683	0.475	0.737	0.618	1.08	0.697	0.556
SSDPDYLAAVD [GLB1_Y154]	1.34	0.693	0.74	0.56	0.885	0.604	1.27	0.656	0.631	1.12	0.487	0.814	0.55	1.02	0.742	0.482
YEAMEYLESKQ [BTK_Y511_C506Y]	1.84	2.15	0.843	1.15	1.04	3.06	1.28	0.654	0.805	1.14	3.12	0.836	0.568	0.646	0.649	10
PIQLFYTRKNT [GHR_Y86_R89K]	4.3	0.65	0.835	0.718	0.967	1.27	1.62	1.04	1.18	1.86	0.846	0.916	1.39	0.767	0.756	0.605
VVTGLYEKPSL [KIR3DS1_Y221]	1.36	4.21	7.7	0.456	0.537	13.2	0.66	2.3	6.03	0.623	9.59	17.3	1.05	0.722	0.461	0.859
QITQVYGFFDE [PPP2CA_Y127_YF]	1.81	1.28	0.97	0.836	1.08	1.39	1.81	14.9	6.92	1.33	2.32	1.06	8.8	0.898	0.841	0.726
ALTRSYIRERV [CYP2C8_Y243_K247R]	0.768	0.373	0.457	0.421	0.423	0.373	0.536	0.334	0.493	0.58	0.391	0.458	0.451	0.607	0.51	0.395
CGTPEYLAPEI [PRKACA_Y205]	2.65	0.893	0.757	0.718	1.06	0.679	1.57	0.531	0.633	1.51	0.463	2.42	0.535	0.87	0.586	0.421
LARDMCDKEYY [MET_Y1230_Y1230C]	1.64	0.853	1.01	0.995	0.828	0.897	1.89	0.902	0.834	2.02	0.84	1.06	0.849	0.714	0.593	0.952
GVLDIYGFDIL [MYO1A_Y382_E385D]	0.978	0.67	0.566	0.448	0.621	0.524	1.07	3.78	2.12	0.955	0.465	0.69	2.69	0.839	0.784	0.427
FAELVYTVFWH [ASS1_Y322_G324V]	2.15	2.33	2.94	4.39	3.34	6.19	1.63	7.64	5.47	2.27	8.06	12.5	7.17	1.1	1.05	0.713
NGRTGDVLQPE [PLCG2_Y1036_Y1036D]	0.971	0.598	0.468	0.404	0.669	0.464	1.05	0.39	0.496	0.903	0.454	0.777	0.428	0.579	0.526	0.347
